Results taken from publication PMC4736791 (Biophysics, 2015).

Target: the molecule itself
Assay: SAXS; nucleotide-free KaiC monomer (1.69 mg/ml) mixed with P-buffer containing ATP to 1 mM final; curve taken at 30°C 6 min after addition of ATP; monomer to hexamer

B1: KaiC (natural protein, UniProt Q79PF4 1-519, looked up)
chain: MTSAEMTSPNNNSEHQAIAKMRTMIEGFDDISHGGLPIGRSTLVSGTSGTGKTLFSIQFLYNGIIEFDEPGVFVTFEETPQDIIKNARSFGWDLAKLVDEGKLFILDASPDPEGQEVVGGFDLSALIERINYAIQKYRARRVSIDSVTSVFQQYDASSVVRRELFRLVARLKQIGATTVMTTERIEEYGPIARYGVEEFVSDNVVILRNVLEGERRRRTLEILKLRGTSHMKGEYPFTITDHGINIFPLGAMRLTQRSSNVRVSSGVVRLDEMCGGGFFKDSIILATGATGTGKTLLVSRFVENACANKERAILFAYEESRAQLLRNAYSWGMDFEEMERQNLLKIVCAYPESAGLEDHLQIIKSEINDFKPARIAIDSLSALARGVSNNAFRQFVIGVTGYAKQEEITGLFTNTSDQFMGAHSITDSHISTITDTIILLQYVEIRGEMSRAINVFKMRGSWHDKAIREFMISDKGPDIKDSFRNFERIISGSPTRITVDEKSELSRIVRGVQEKGPES
With B1 the “stoichiometry N” value was 6.05 ± 0.08 fold.
